The values below come from patent US20260216058A1, “TRACE ELEMENT COMPOSITION, PREPARATION METHOD THEREFOR, AND USE THEREOF” (BEIJING ZANGWEIXINKANG PHARMACEUTICAL R&D CO., LTD., priority 2023, published 2026).

In the data set the test system is Hartley guinea pigs. Put plainly: Systemic active allergic reaction test in guinea pigs. In kind it is in vivo, guinea pig. As to conditions: 40 mg/mL. The source says: Systemic active allergic reaction test in guinea pigs: Hartley guinea pigs, SPF grade, source: Beijing Vital River Laboratory Animal Technology Co., Ltd., animal production license No.: SCXK (JING) 2016-0011, test animal certification No.: No. 110011201110221326, issuer: Beijing Science and Technology Commission, age at the start of administration: 5-6 weeks.
Guinea pigs were sensitized by intraperitoneal injection of the sample of Example 2 and Addaven every other day for three consecutive days. In the allergic reaction test, 0.9% sodium chloride injection (Lot No.: 6B20060706, Shandong Qidu Pharmaceutical Co., Ltd.) was selected as the compatibility solution. Test sample low-dose group was administered with the clinically intended concentration of the test sample solution, and test sample high-dose group was administered with twice the concentration of the test sample solution. The administration volume was 0.5 mL/animal for each group. On the 14th and 21st days after the last sensitization, twice the sensitization dose of the product was intravenously injected for irritation, respectively.
Negative control group: 0.9% sodium chloride injection; […]

On to bovine serum albumin, for which the allergic reactions result runs as follows: (irritation on the 14th day after the last sensitization) “strongly positive to extremely strong positive”; (irritation on the 21st day after the last sensitization) “strongly positive to extremely strong positive”.
